Laboratory results as given in publication PMC4837003.
Read-outs that look alike come from different tables or passages of the source.

Experiments:
[1] = target: HLA-A*0201 heavy chain with β2-microglobulin; test: differential scanning fluorimetry
[2] = target: HLA-DR1 (DRA*0101/DRB*010101), soluble extracellular domains (human)
[3] = target: HLA-DR1 (DRA*0101/DRB*010101), soluble extracellular domains (human); remark: listed apart in the source
[4] = target: HLA-A*0201 heavy chain with β2-microglobulin; test: circular dichroism
[5] = target: HLA-DR1 (DRA*0101/DRB*010101), soluble extracellular domains (human); test: differential scanning fluorimetry

Molecule	apparent Tm by DSF [1] [°C]	apparent Tm by CD [4] [°C]	further results
SL9 peptide	59	–	–
tyrosinase peptide (TYR)	67.3	–	–
NS3_(1406(7N)-1415) peptide	55.8	–	–
influenza HA peptide	–	–	apparent Tm by DSF [2]: 82.1 °C; apparent Tm by DSF [3]: 83 °C
ALGIGILTV [MART-1_(27(2L)-35) peptide]	59.2	51	half-life of the complex (slowest phase, peptide dissociation) [1]: 6.9 h
LGYGFVNYI [HUD peptide]	44.8	–	–
YMDGFMSQV [TYR (T5F) peptide]	61.4	63	–
LLYGFVNYV [HUD_(87(2L,9V)-95) peptide]	65.1	63	–
YRAL [Min4 peptide]	–	–	other [5]: 67.8 °C
IMDQVPFSV [gp100_(209(2M)-217) peptide]	62.2	–	–
